Patent US20190290758A1

Molecular target: ELAVL4 1-117 with the canonical isoAsp-prone sites N7, N15 and D36 mutated (human)

on-blot PIMT-catalyzed methylation with 3H-S-adenosyl methionine: 25%
Substance: recombinant rat repair enzyme protein-L-isoaspartate O-methyltransferase (PIMT) (from UniProt P22062)
